According to patent US11407811B2, “Fusion protein, preparation method therefor and use thereof” (JIANGSU RONGTAI BIOTECH CO., LTD., priority 2017, dated 2022):
Marks after values point to notes of the source that are not given here.

Columns and labels:
[1] = system: human umbilical vein endothelial cells (HUVEC); assay: Three-dimensional transwell assay, migration of HUVEC; assay type: cell-based
Description: Human umbilical vein endothelial cells (HUVECs) were cultured with endothelial cell culture fluid containing 5% fetal bovine serum and 1×ECGS in a 5% CO2 incubator at 37° C., to a confluence of 90% or more, and then inhibitory effects of fusion protein I, protein II, protein III, protein IV, and protein V on migration of endothelial cells were detected by transwell assay, in which only endothelial cells HUVEC of passage 2 to 8 were used, and the specific operation was as follows.
(1) 10 mg/mL Matrigel was diluted with a DMEM medium at a ratio of 1:4, coated on a transwell chamber membrane, and air-dried at room temperature.
(2) HUVEC cells cultured to logarithmic phase were digested with 0.2% EDTA, collected, washed twice with PBS, followed by resuspended in an endothelial cell culture liquid containing 0.1% BSA, counted under a microscope, and the cell concentration was adjusted to 1×10^5 cells/mL;
(3) Test solutions for each group were formulated and diluted to 100 μL with a cell culture liquid containing 0.1% BSA;
Groups were divided as follows:
Blank control group: a cell culture liquid containing no drug;
Endostar group: 5 mg/mL Endostar solution diluted to a predetermined concentration with a cell culture liquid containing no drug; […]
(4) The cells were inoculated into a transwell chamber at 100 μL per well, and test solutions for each group were added to the chamber. To a 24-well plate, 0.6 mL of endothelial cell culture liquid containing 5% fetal bovine serum and 1×ECGS was added to stimulate cell migration, and incubated at 5% CO2 for 24 h at 37° C.
(5) The culture liquid in the well was discarded. The cells were fixed with 90% alcohol at room temperature for 30 min, stained with 0.1% crystal violet for 10 min at room temperature, and rinsed with water. Un-migrated cells in the upper layer were gently wiped off by a cotton swab. The observation was carried out under microscope and four fields of view were selected for taking photos and counting. The migration inhibition (MI) was calculated according to the formula: […]
where Ntest is the migration cell number in the test group, and Ncontrol is the migration cell number in the blank control group.
The test was repeated 3 times independently. The results obtained from the test were calculated as mean±SD, and statistical t-test was performed. P<0.05 was considered as a significant difference, and P<0.01 was considered as an extremely significant difference.

[2] = system: corneal neovascularization in mice; assay: Corneal neovascularization induced by alkali burn in BALB/c mice (MVD, CD31); assay type: in vivo
Text: 15 healthy male BALB/c mice with weight of 20-25 g were examined under a slit lamp microscope for the anterior segment of both eyes and the appendage to exclude ocular lesions. The eyes were given 0.3% loxacin eye drops 1 day before the preparation of alkali burn model, twice a day. After the mice were anesthetized by intraperitoneal injection of 1.8% Avertin, single-layer filter paper with a diameter of 2 mm was clamped with tweezers, and immersed in a 1 mol/L sodium hydroxide solution to reach a saturated state, and the excess liquid was removed. […]
15 mice were randomly divided into […], with 5 rats in each group. […] On day 14 after alkali burn, the neovascularization of the corneal in each group was photographed and recorded under the slit lamp microscope for photographing anterior segment of the eye. […] The blood was washed with physiological saline, and the eyeballs were fixed in 4% paraformaldehyde for 1.5 h, dehydrated in PBS containing 30% sucrose overnight, embedded in an OCT tissue freezing medium, stored in a refrigerator at −80° C., subjected to cryosection at […] and detected by immunohistochemistry for CD31 expression.
Microvessel density (MVD) is an indicator for evaluating angiogenesis. […] The number of new blood vessels in the entire section was counted under a 10×20 microscope. […]

B1: Protein II: IgG2-Fc linked to antiangiogenesis polypeptide EDSM-Y via a flexible linker; SEQ ID NO: 17 (protein)
chain: ERKCCVECPPCPAPPVAGPSVFLFPPKPKDTLMISRTPEVTCVVVDVSHEDPEVQFNWYVDGVEVHNAKTKPREEQFNSTFRVVSVLTVVHQDWLNGKEYKCKVSNKGLPAPIEKTISKTKGQPREPQVYTLPPSREEMTKNQVSLTCLVKGFYPSDISVEWESNGQPENNYKTTPPMLDSDGSFFLYSKLTVDKSRWQQGNVFSCSVMHEALHNHYTQKSLSLSPGKGGGGSGGGGSGGGGSFQPVLHLVALNSPLSGGMRGIRGADFQCFQQARAVGLAGTFRAGGGGRGD
[1]; dose 0.25 μg/mL
  MI (%): 16.12%
  Migration cell number: 2108.0 ± 75.27
[1]; dose 0.5 μg/mL
  MI (%): 52.11%
  Migration cell number: 1203.5 ± 220.14**^
[1]; dose 1 μg/mL
  MI (%): 73.06%
  Migration cell number: 677.0 ± 24.72**^
[1]; dose 2 μg/mL
  MI (%): 77.34%
  Migration cell number: 569.5 ± 270.29
[1]; dose 4 μg/mL
  MI (%): 65.86%
  Migration cell number: 858.0 ± 145.87
[1]; dose 8 μg/mL
  MI (%): 29.88%
  Migration cell number: 1762.0 ± 183.97
[2]; compared with the control group
  number of CD31-positive new blood vessels: significantly reduced
[2]; dose 64 μg, intravitreal injection, day 14 after alkali burn
  MVD: 24.64 ± 4.24
